Source: patent publication US20250134975A1, “CANCER VACCINE COMPRISING EPITOPE OF C-MET AND USE THEREOF” (KOREA UNIVERSITY RESEARCH AND BUSINESS FOUNDATION, priority 2022, published 2025)
Entries after “also recorded” stand apart in the source; their conditions may differ.

Experiments:
[1] = tested on: bone marrow monocytes (BMMs); experiment: Osteoclastogenesis analysis in bone marrow monocytes (TRAP staining); type: cell-based, C3 (1)-Tag mice; conditions: IFN-γ 50, 100 ng/mL with M-CSF 30 ng/mL and RANKL 100 ng/mL, vs positive control
Method: Primary mouse bone marrow monocytes (BMMs) were isolated from the hind limb bones (two femurs and two tibiae) of 4 to 8 week-old C3 (1)-Tag mice. The mouse BMMs were flushed into a 15 ml tube via 8 ml of a serum-free 2 mM EDTA α-MEM medium. A Lymphocyte Separation Medium (LSM: MP Biomedicals: Catalog No. 50494) was dispensed into a new tube, 8 ml of the flushed BMMs were gently added thereon and centrifuged at 1600 rpm for 20 minutes at room temperature. The isolated BMMs were inoculated at 3×10^5 cells/well in a 48-well plate with 0.5 mL of a medium per well and incubated in α-MEM containing 10% FBS and 1% antibiotics.
BMMs in a negative control group were treated with M-CSF (30 ng/mL), BMMs in a positive control group were treated with M-CSF and RANKL (100 ng/mL), and BMMs in an experimental group were stimulated by treatment with M-CSF, RANKL, and IFN-γ (50, 100 ng/mL). On days 1, 3, 5, and 7 of culture, the medium was replaced, and each experimental group was treated with M-CSF, RANKL, and IFN-γ. After 9 days of culture, staining was performed using a TRAP staining kit (KT-008, KAMIYA biomedical company, Seattle, WA, USA) after fixing the cells with 10% formalin. For each well, TRAP-positive (TRAP^+) multinucleated cells (TRAP^+ MNC) were counted. All the experiments were independently repeated three times.

[2] = tested on: M6-bone cells; experiment: Western blot of IFN-γ-treated cells; type: cell-based, mouse; conditions: 100 ng/ml IFN-γ, 18 hours
Method: M6 and M6-bone cells were stimulated with 100 ng/ml recombinant mouse IFN-γ and cultured in a medium containing 1% FBS for 18 hours. The cells were lysed in a buffered mixture of a PRO-PREP™ protein extraction solution (iNtRON Biotechnology, 17081) and a phosphatase inhibitor cocktail (Gen DEPOT, p3200-001). Protein concentration was measured using the Bradford assay (Bio-rad, 500-0006, Hercules, CA, USA). 30 μg of the protein was separated by SDS-polyacrylamide gel electrophoresis and transferred to a PVDF membrane (10600023), and then the membrane was blocked with Tris-buffered saline containing 0.05% Tween 20 and 5% non-fat milk powder for 1 hour. The PVDF membrane was incubated overnight at 4° C. with primary antibodies. HIF1α (NB100-105, Novusbio), c-MET, Akt (Cat #9272), and p-Akt (Cat #9271) antibodies were purchased from Cell Signaling Technology (Beverly, MA, USA), and β-actin (Cat #A5316) was purchased from Sigma (Saint Louis, MO, USA). Subsequently, a horseradish peroxidase-conjugated secondary antibody was cultured at room temperature for 1 hour. Immunoreactive bands were detected with a chemiluminescent reagent (Cat #RPN2106).

B1: IFN-γ: recombinant mouse IFN-γ, key cytokine of Th1 immunity (protein, UniProt P01580 23-155, looked up)
Interferon gamma: HGTVIESLESLNNYFNSSGIDVEEKSLFLDIWRNWQKDGDMKILQSQIISFYLRLFEVLKDNQAISNNISVIESHLITTFFSNSKAKKDAFMSIAKFEVNNPQVQRQAFNELIRVVHQLLPESSLRKRKRSRC
- M-CSF and RANKL-induced osteoclastogenesis [1]: completely inhibited osteoclastogenesis; also recorded: inhibits
- expression of c-MET and p-Akt (Western blot) [2]: decreased
